Source: patent US20230029635A1 (US Dept. of Health and Human Services, published 2023)
Where a chain is given by its changes, count along the chain named.

B1: 3NS1 (Fab, V domains shown)
VH: QSVEESGGRLVTPGTPLTLTCTVSGFSLSNYIITWVRQAPGKGLEWIGMISTDGDTYYANWAKGRFTISKTSTTANLKITSPTTEDTATYFCARGLTNFFIWGPGTLVTVSS
VL: QPVLTQSPSVSAALGASAKLTCTLSSAHKTYSIGWYQQHQGEAPRFLMQLRRDGSYTKGTGVPDHFSGSSSGADRYLIIPNVQADDEADYYCGVDYDGGYVFGGGTQLTVTG
notes: Chimeric rabbit/human Fab, lambda, with 6xHis tag; also called 3NS1 r/h-IgG1λ
B2: 4S10 (Fab, V domains shown)
VH: B1 VH with G7R, F26I, S27D, N30S, Y31S, I32A, D55A, I68F, N76D, F100S
VL: QPVLTQSPSASAALGASAKLTCTLSSAHKTYTIAWYQQQPGESPRYLMLLKSDGSYTRGPGVPDRFSGSSSGADRYLIIPSVQADDEAGYYCGADYNGGYVFGGGTQLTVTG
notes: Chimeric rabbit/human Fab, lambda, with 6xHis tag
B3: 3N02 (Fab, V domains shown)
VH: QKQLVESGGRLVTPGGSLTLTCTISGIDLNTYGMTWVRQAPGKGLEYIGIIVSSGNTYYANWAQGRFTISKTSTTVDLKMTSLTASDTATYFCARGLGRAYSSGYGMDGWGPGTLVTVSS
VL: DPVLTQTPSSTSAAVGGTVTIKCQASQNIYTSLAWYQQKPGQPPKLLIYGASNLASGVPSRFKGSRSGTEYTLTISGVEREDAATYYCLGSYTQIDTTFGGGTKLEIK
notes: Chimeric rabbit/human Fab (rabbit variable domains, human kappa constant domain) with 6xHis tag in SPR, zymosan ELISA and flow cytometry; also called 3N02 r/h-IgG1k
B4: 4S04 (Fab, V domains shown)
VH: QEQLKESGGRLVTPGTPLTLTCTASGFSLSTYAMIWVRQAPGKGLEYIGIISYGGSAYYASWAKGRFTISKTSTTVDLKITSPTTEDTATYFCARDRGFGYGYGIGYYGLDPWGPGTLVTVSS
VL: DGVMTQTPSSTSAAVEGTVTINCQASQSIGSYLSWYQQKPGQPPKLLIYQASKMASGVPSRFKGSGSGTQFTLTISNVQGEDAATYYCLGHYVGDWSFGAGTKVEIK
notes: Chimeric rabbit/human Fab, kappa, with 6xHis tag
B5: 3NS3 (Fab, V domains shown)
VH: QSLEESGGGLVTPGTPLTLTCTVSGIDLSAYAMTWVRQAPGKGLEWIGMISTDGATYYASWAKGRFTISKTSTTADLTITSPTTEDTATYFCARGLTNFFIWGPGTLVTISS
VL: QPVLTQSPSASATLGSSAKLTCTLSSAHSTYTIAWYQQKQGESPRCLMYLKSDGSYTRGTGVPDRFSGSSSGADRYLIIPNVQADDEADYYCGADYSGGYLFGGGTQLTVTG
notes: as for B2
B6: 3N07 (Fab, V domains shown)
VH: QSLEESGGRLVTPGTPLTLTCTVSGFSLSRYTMAWVRQAPGKGLEYIGWIDSSGSTYYASWAKGRFTISKTSSTTVDLKMTSLTTEDTATYFCASGNDGGDPLYYGMDPWGPGTLVTVSS
VL: DGVMTQTPSSTSAAVGGTVTIKCQASQSIRSWLSWYQQKPGQPPKLLIYEASKLASGVPSRFKGSRSGTEYTLAISGVQREDAATYYCLGSIASDDTAFGAGTNVEIK
notes: Chimeric rabbit/human Fab, kappa, with 6xHis tag; also called Fab 3N07; 3N07 r/h-IgG1k
B7: d301 (Fab, V domains shown)
VH: B6 VH with R30T, M33L, A34G, T56A, T71A, T81A, S82G, D98T
VL: DPVLTQTPSSTSAAVGGTVTIKCQASQNIGRWLAWYQQKPGQPPKLLIYRASDLASGVPSRFKGSGSGTQFTLTISGVQREDAATYYCLGSYSSSDSAFGGGTEVVVK
notes: Chimeric rabbit/human Fab, kappa, with 6xHis tag; also called Fab d301; d301 r/h-IgG1k
B8: 5S8 (Fab, V domains shown)
VH: QSVEESGGRLVTPGTPLTLTCTVSGFSLSSYAMTWVRQAPGKGLEWIGVIGTSGMRYYANWAKGRFTISKTSTTVDLKITSPTTEDTATYFCARANFYVGNDESTDAFDPWGPGTLVTVSS
VL: ALVMTQTPPSLSASVGETVRIRCLASEDIYNTISWYQQKPGKPPTLLIYGASNLKSGVPPRFSGSGSGTDYTLTIGGVQSEDAATYYCLGGYSYSSTGLTFGAGTKVEIK
notes: Chimeric rabbit/human Fab, kappa, with 6xHis tag in SPR, zymosan and JeKo-1 assays; also called Fab 5S8; 5S8 r/h-IgG1k
B9: 3NS2 (Fab, V domains shown)
VH: QSVEESGGRLVTPGTPLTLTCTVSGIDLSSYSMGWVRQAPGKGLEWIGIIYNTGRIDYANWAKGRFTISKTSTTVDLKITSPTIGDTATYFCGRGYPGDIWGPGTLVTVSS
VL: DVVMTQTPSSVSAAVGGTVTIKCQASESIYSDLAWYQQKPGQRPKLLIYFASTLASGVPSRFKGSGSGTEYTLTISGVQREDAATYYCLGDYGNSWAFGAGTKVEIK
notes: as for B2
B10: 4S12 (Fab, V domains shown)
VH: QEQLVESGGRLVTPGTPLTLTCTVSGFSLSSYHMSWVRQAPGKGLEWIGIIYFTGDASYASWAKGRFTISKTSPTTVDLKITSPTTEDTATYFCARDTDWNSSRTIPFDPWGPGTLVTVSS
VL: SFVLTQPASVQVNLGQTVSLTCTADTLSRTYASWYQQKPGQAPVLLIYRDTSRPSGVPDRFSGSSSGNTATLTISGAQAGDEADYYCATSDGSGSSYQYVFGGGTQLTVTG
notes: as for B2
B11: MN66 (Fab, V domains shown)
VH: QSVEESGGRLVTPGTPLTLTCTVSGFSLSSYAMSWVRQAPGKGLEWIGIIYPNDITYYASWAKGRFTISKTSTTVDLKITSPTTEDTATYFCARVVSWPGYTTEYYFNIWGPGTLVTISS
VL: QFVLTQPQSVSGSLGQTVSMSCKCDSGNIDNYYVHWYQQHPGKAPTTVIYNDDQRPSGVPDRFSGSIDSTSNSASLTITGLLAEDEADYYCLSSVSSDNYVFGGGTQLTVTG
notes: Lambda

Tests used:
hFc-mC3d [1] = target: T1, hFc-mC3d (mouse, UniProt P01027 1002-1303); assay: SPR, hFc-mC3d captured by anti-human IgG CH2 mAb, Fab injected
T1 construct: domain: C3d; also called hFc-mC3d fusion protein; not shown: human Fc of vector pCEP4-hFc
T1 sequence (P01027 other isoform, or with tags, fused parts or gaps): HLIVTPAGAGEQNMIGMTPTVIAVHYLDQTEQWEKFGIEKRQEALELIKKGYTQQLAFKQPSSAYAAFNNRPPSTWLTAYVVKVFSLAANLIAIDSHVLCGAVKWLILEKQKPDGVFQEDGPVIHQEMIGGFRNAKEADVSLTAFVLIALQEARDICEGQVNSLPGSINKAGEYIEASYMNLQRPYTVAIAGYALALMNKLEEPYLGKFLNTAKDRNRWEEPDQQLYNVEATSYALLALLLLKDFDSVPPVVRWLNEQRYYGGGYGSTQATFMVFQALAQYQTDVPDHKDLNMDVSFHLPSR

[2] = target: T2, Mouse C3b/iC3b/C3d deposited on zymosan particles (mouse, UniProt P01027 1002-1303, limits assumed); assay: flow cytometry: His-tagged Fab at 5 µg/mL on zymosan particles opsonized with 50% mouse serum, mouse anti-6xHis Alexa Fluor 488
T2 construct: also called Zymosan deposited C3b/iC3b/(C3d) mouse
T2 sequence (P01027 1002-1303 limits assumed): as the sequence (P01027 other isoform, or with tags, fused parts or gaps) above, with A9C counted along it
Procedure: One million zymosan particles deposited with C3b/iC3b/C3d were added into one well of a V-bottom 96-well plate. Then 500 ng/100 μL of antibody was applied in each well at 37° C. for 1 h. After washing three times by phosphate buffered saline and TWEEN™ 20 (PBST), 100 μL of a 1:1000 dilution of a mouse anti-His tag mAb conjugated to ALEXA FLUOR™ 488 (Qiagen, Hilden, Germany) in 1% (w/v) bovine serum albumin (BSA)/DPBS was used to detect the antibody.
The cross reactivity of 5 μg/mL of antibodies of the invention with 6xHis tag to human, or cynomolgus, or mouse C3b/iC3b/C3d deposited on zymosan particles after incubation with 50% corresponding serum at 37° C. for 45 min was determined by flow cytometry with a secondary mouse anti-HIS mAb conjugated to ALEXA FLUOR™ 488. […] In Table 3, the relative level of affinity is shown by the number of plus or minus signs (e.g., +++=high affinity). m/h and r/h denote […], respectively, variable domains fused human constant domains; k, kappa light chain; λ, lambda light chain.

[3] = target: T3, Jeko1 cell line deposited C3d (human, UniProt P01024 1002-1303, limits assumed); assay: flow cytometry: Fab at 2.5 µg/mL on JeKo-1 cells opsonized with 10 µg/mL rituximab and incubated with 50% C5-depleted human serum for 2 h with 0.5 U/mL CR1 or for 24 h (C3b/iC3b decayed to C3d)
T3 construct: domain: C3d; also called human C3d on JeKo-1 cells
T3 sequence (P01024 1002-1303 limits assumed): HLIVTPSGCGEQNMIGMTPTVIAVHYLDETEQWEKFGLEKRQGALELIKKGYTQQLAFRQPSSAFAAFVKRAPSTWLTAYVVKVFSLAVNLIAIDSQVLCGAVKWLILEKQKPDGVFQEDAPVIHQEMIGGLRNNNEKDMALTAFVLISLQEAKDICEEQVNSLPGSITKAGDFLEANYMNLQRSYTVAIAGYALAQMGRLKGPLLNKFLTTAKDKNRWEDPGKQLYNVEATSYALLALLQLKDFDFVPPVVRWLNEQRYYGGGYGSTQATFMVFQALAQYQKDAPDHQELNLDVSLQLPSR
Procedure: FIG. 13 is a graph showing the binding activity of antibodies of the invention to different human C3 fragments. The binding of each chimeric rabbit/human Fab at 2.5 μg/mL to C3b/iC3b/(C3d), or C3d was determined by flow cytometry against JeKo-1 cells deposited with human C3 fragments after opsonization by 10 μg/mL rituximab (RTX) followed by incubation with 50% CS-depleted human serum for 2 h with or without 0.5 U/mL CR1 or 24 h. In the presence of CR1 or after treatment with serum for 24 h, most of C3 fragments had decayed from C3b/iC3b to C3d.
To deposit C3 fragments on zymosan, one hundred million of preactivated zymosan particles (Complement Technology, Inc.) were washed and then incubated with 50% pooled normal human complement serum (PNHCS) or normal BALB/c mouse or cynomolgus complement serum in 1 mL Dulbecco's phosphate-buffered saline (DPBS) at 37° C. for 1 h. For JeKo-1 cells, 10 μg/mL rituximab (RTX) was first used to opsonize cells followed by incubation with 50% CS-depleted PNHCS. To allow C3b/iC3b deposited on JeKo-1 cells to decay to C3d, the incubation time of cells with serum was prolonged to 24 h, or 0.5 U/mL CR1 (rhCD35, R&D Systems, Minneapolis, Minn.) was included during the incubation. […]

hFc-hC3d [4] = target: T4, hFc-hC3d (human, UniProt P01024 1002-1303); assay: Table 3, column Human C3d; rounded form of the SPR Kd on hFc-hC3d of Table 2
T4 construct: range 1002-1303; expressed in HEK293F cells, purified on Protein A; also called hFc-hC3d fusion protein; not shown: human Fc of vector pCEP4-hFc
T4 sequence (P01024 other isoform, or with tags, fused parts or gaps, form in doubt): as the sequence (P01024 1002-1303 limits assumed) above, with C9A counted along it
Procedure: (§1) Surface plasmon resonance (SPR) for the measurement of kinetic and thermodynamic parameters of the binding of purified antibodies to hC3d or mC3d antigens was performed on a Biacore X100 instrument using Biacore reagents and software (GE Healthcare, Chicago, Ill.). A mouse anti-human IgG CH2 mAb was immobilized on a CM5 sensor chip using reagents and instructions supplied with the Human Antibody Capture Kit (GE Healthcare). hFc-hC3d and hFc-mC3d fusion proteins were captured at a density not exceeding 400 RU. Each sensor chip included an empty flow cell for instantaneous background depletion. All binding assays used 1×HBS-EP+ running buffer (10 mM HEPES, 150 mM NaCl, 3 mM EDTA (pH 7.4), and 0.05% (v/v) surfactant P20) and a flow rate of 30 μL/min. All of the Fabs were injected at five different concentrations (dilution factor was 2), and the lowest concentration was tested in duplicates. The sensor chips were regenerated with 3 M MgCl₂ from the Human Antibody Capture Kit without any loss of binding capacity. Calculation of association (kₒₙ) and dissociation (koff) rate constants was based on a 1:1 Langmuir binding model. The equilibrium dissociation constant (KD) was calculated from koff/kₒₙ.

hFc-mC3d [5] = target: T1, hFc-mC3d; assay: Table 3, column Mouse C3d; rounded form of the SPR Kd on hFc-mC3d of Table 2
Procedure: as §1

hFc-hC3d [6] = target: T4, hFc-hC3d; assay: SPR (Biacore X100), hFc-hC3d captured by anti-human IgG CH2 mAb, Fab injected, 1:1 Langmuir
Procedure: as §1

hFc-mC3d [7] = target: T1, hFc-mC3d; assay: SPR (Biacore X100), hFc-mC3d captured by anti-human IgG CH2 mAb, Fab injected, 1:1 Langmuir
Procedure: as §1

hFc-mC3d [8] = target: T1, hFc-mC3d; assay: Table 3, column Mouse C3d; the SPR Kd on hFc-mC3d of Table 2
Procedure: as §1

hFc-hC3d [9] = target: T4, hFc-hC3d; assay: Table 3, column Human C3d; the SPR Kd on hFc-hC3d of Table 2
Procedure: as §1

Binder | binding result (hFc-mC3d [1]) | binding result [2] | Kd (hFc-hC3d [6]) [nM] | Kd (hFc-mC3d [7]) [nM] | further results
B1 | no binding | no binding (tested: 5 µg/mL) | – | – | binding result [3]: binds
B2 | no binding | – | – | – | –
B3 | – | – | 13.3 | 97.6 | Kd (hFc-hC3d [4]): 13 nM; Kd (hFc-mC3d [5]): 98 nM
B4 | – | – | 4.11 | – | –
B5 | no binding | no binding (tested: 5 µg/mL) | – | – | –
B6 | – | – | 3.1 | 132 | Kd (hFc-mC3d [8]): 132 nM; Kd (hFc-hC3d [4]): 3.1 nM
B7 | – | – | 0.99 | 22.9 | Kd (hFc-hC3d [9]): 0.99 nM; Kd (hFc-mC3d [5]): 23 nM
B8 | – | – | 3.35 | 9.04 | Kd (hFc-hC3d [4]): 3.4 nM; Kd (hFc-mC3d [5]): 9 nM
B9 | no binding | no binding (tested: 5 µg/mL) | – | – | –
B10 | no binding | no binding (tested: 5 µg/mL) | – | – | –
B11 | – | – | 0.31 | – | –
